Tested on: T1, Cc1cc(=O)oc2cc(NC(=O)CC[C@H](N)C(=O)O)ccc12
T1 construct: purchased Asahi Kasei Co., Ltd. HC-GTP (lot 603AA)
Assay: Hydrolytic assay of human GGT (Michaelis constant of substrate)
Format: biochemical
Conditions: other: human GGT, substrate concentration 4.0 μM
Experimental: In the experiment, at first, Michaelis constants (Km) for 7-(γ-L-glutamylamino)-4-methylcoumarin as substrate were measured by a fluorescence method [Smith, G. D.; Ding, J. L.; Peters, T. J. Anal. Biochem. 100, 136-139 (1979)] for the hydrolytic activities of E-coli GGT and human GGT.
In the hydrolytic assay of human GGT, the measurement was carried out in the same manner as that in the hydrolytic assay of E-coli GGT, except that the substrate concentration was changed to […] and therefore, the explanation of the common portions was omitted.

Chain of human GGT (Homo sapiens) (chain, as listed by the source): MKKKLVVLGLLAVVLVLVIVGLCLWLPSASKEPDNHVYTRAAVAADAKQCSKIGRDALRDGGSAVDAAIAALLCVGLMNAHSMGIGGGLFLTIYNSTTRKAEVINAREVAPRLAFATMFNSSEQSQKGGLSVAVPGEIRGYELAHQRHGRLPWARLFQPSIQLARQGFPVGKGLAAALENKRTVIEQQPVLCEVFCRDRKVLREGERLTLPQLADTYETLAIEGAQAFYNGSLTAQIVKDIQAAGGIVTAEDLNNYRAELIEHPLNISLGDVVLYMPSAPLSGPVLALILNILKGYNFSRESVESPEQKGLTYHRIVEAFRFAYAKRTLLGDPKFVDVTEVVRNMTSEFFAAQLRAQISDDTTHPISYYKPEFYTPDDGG
Chain of human GGT (Homo sapiens) (chain, as listed by the source): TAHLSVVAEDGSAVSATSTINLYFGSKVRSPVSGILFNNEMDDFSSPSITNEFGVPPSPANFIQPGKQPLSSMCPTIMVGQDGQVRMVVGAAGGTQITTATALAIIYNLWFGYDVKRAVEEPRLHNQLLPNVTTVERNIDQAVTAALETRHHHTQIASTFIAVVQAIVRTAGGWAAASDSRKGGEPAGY

Work on human GGT (Homo sapiens) yielded a Km of 12.6 µM.

Source: patent US8129557B2, “Phosphonic acid diester derivative and method for producing thereof” (priority 2005, dated 2012)
